# Paper PMC5668312, “Structural basis of katanin p60:p80 complex formation” (Scientific Reports, 2017)
# B1: katanin p60 MIT domain (p60-MIT, aa 1-78 of mouse p60), wild type (domain or fragment, UniProt Q9WV86 1-78, looked up)
# chain: MSLQMIVENVKLAREYALLGNYDSAMVYYQGVLDQMNKYLYSVKDTHLRQKWQQVWQEINVEAKQVKDIMKTLESFKL
# notes: katanin p60 subunit, mouse, N-terminal MIT domain, residues 1-78; Co-purified with m2 as the p60-MIT:6xHis-p80CTD complex; source: E. coli BL21(DE3), pET28a, co-expressed with 6xHis-p80-CTD, purified (IMAC, SEC)
# Target: T1, katanin p80 C-terminal domain (p80-CTD, aa 481-658 of mouse p80), 6xHis-tagged (mouse, UniProt Q8BG40 481-658)
# T1 construct: katanin p80 subunit, mouse, C-terminal domain, residues 481-658; also called 6xHis-p80CTD; source: E. coli BL21(DE3), pET28a, co-expressed with p60-MIT, purified (IMAC, SEC); not shown: 6xHis, N-terminal, kept
# Assay: AUC; sedimentation velocity of the co-purified p60-MIT:p80-CTD complex, 300 nM to 50 μM, 20 °C, 42,000 rpm, 20 mM HEPES pH 7.4, 150 mM NaCl, 2 mM 2-mercaptoethanol; apparent Kd estimated
# Conditions: both partners purified
# T1 sequence (Q8BG40 481-658): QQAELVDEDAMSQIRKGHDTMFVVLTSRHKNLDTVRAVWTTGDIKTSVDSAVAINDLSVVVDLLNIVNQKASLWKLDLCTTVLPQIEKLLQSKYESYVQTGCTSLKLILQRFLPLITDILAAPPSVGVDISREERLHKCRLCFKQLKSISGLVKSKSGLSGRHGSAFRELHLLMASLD
binder,measurement,value
B1,stoichiometry N,1
